Molecular target: SARS-CoV-2 S Foldon his (prefusion stabilized spike ectodomain) (SARS-CoV-2 (Wuhan-Hu-1) | bacteriophage T4) (UniProt P0DTC2)
Experiment: native gel or EMSA

“SARS-CoV-2 S Foldon his (prefusion stabilized spike ectodomain) (from UniProt P0DTC2 14-1138) (domain or fragment)” gave a stoichiometry N of 3.
